Laboratory results taken from the DeepSol protein solubility set.

Experiment: soluble on expression in E. coli; label from the status in PepcDB or PDB records

Row | Sequence | soluble on expression in E. coli
1 | AHHHHHHGSSVEVPLNPITRSEIHQLESILLFATLFRPEVIELIKDPAERLTWVDSLAVAAGAIAREKAGMTVSEIARELGRTEQTIRKHLKGESKAGQLVRETYELIKQGKLDELIKTIEMIEKGGLREVVAKEEYEKLLQEYEKLKQEYEAIKEKVEAAELESLEKAKEEIENLKKKLQKLEEEKKELEKELKEQKVKLIEYEAKAKRAEELENKVKELEQLAKESEELKKKLEEVQAEAEKAKELENRIKELEEEITKLKDGIKKAKEILESLL | not soluble
2 | AHHHHHHGSVDMSKVKLRIENIVASVDLFAQLDLEKVLDLCPNSKYNPEEFPGIICHLDDPKVALLIFSSGKLVVTGAKSVQDIERAVAKLAQKLKSIGVKFKRAPQIDVQNMVFSGDIGREFNLDVVALTLPNCEYEPEQFPGVIYRVKEPKSVILLFSSGKIVCSGAKSEADAWEAVRKLLRELDKYGLLEEEEEEL | soluble
3 | AHHHHHHGSVDWELMKKIIESPGVSGYEHLGIRDLVVDILKDVADEVKIDKLGNVIAHFKGSAPKVMVAAHMDKIGLMVNHIDKDGYLRVVPIGGVLPETLIAQKIRFFTEKGERYGVVGVLPPHLRREAKDQGGKIDWDSIIVDVGASSREEAEEMGFRIGTIGEFAPNFTRLSEHRFATPYLDDRICLYAMIEAARQLGEHEADIYIVASVQEEIGLRGARVASFAIDPEVGIAMDVTFAKQPNDKGKIVPELGKGPVMDVGPNINPKLRQFADEVAKKYEIPLQVEPSPRPTGTDANVMQINREGVATAVLSIPIRYMHSQVELADARDVDNTIKLAKALLEELKPMDFTP | soluble
4 | AHHHHHHGSVDYELLKKVVEAPGVSGYEFMGIRDVVIEEIKDYVDEVNVDKLGNVIAHKKGEGPKVMIAAHMDQIGLMVTHIEKNGFLRVAPIGGIDPRTLIAQRFKVWIDKGKFIYGVGGSVPPHIQKPEDRKKAPDWDQIFIDIGAESKEEAEELGVKIGTIVTWDGRLERLGKHRFVSIAFDDRIAVYTLIETARQLQDTKADIYFVATVQEEVGLRGARTSAFGINPDYGFAIDVTIAADVPGTPEHKQVTQLGKGTAIKIMDRSVICHPTIVRWMEELAKKYEIPYQWDILLGGGTDAGAIHLTRAGVPTGAVSIPARYIHSNAEVVDERDVDASVKLMVKVLEHIHELKI | soluble
5 | AHHHHHHGSYDELFKKIKEKAKFVDEKLLSLIPEKEPKILYEAARHYPLAGGKRVRPFVVLTATEAVGGEWEKAIYPAVAIELIHNYSLVHDDIMDMDETRRGRPTVHKVWGINMAILAGDLLFSKAFEAISRAEIPPEKKARVLETVVKASNELCEGQAMDLEFEKRDTVTIEEYMRMISGKTGALFDASAKVGGIVGTDNEEYINALSTWGRNVGIAFQIWDDVLDLIADEEKLGKPVGSDIRKGKKTLIVAHFFENADEKDKQKFLKVFGKYAGDVKGEGIIEEDIKAEVMEAIDLLKKYGSIDYAANIAREMVKKANEALKVLPESEARKDLELLARFIVEREY | soluble
6 | AHHHHHHGSYKILEKKEIAMRNTWYKVYAPHVAKKVQPGQFVIVRAFPNGERIPLTPVMWDREEGWIVLIVFTRGKTTMRMAVELKEGDSLLNVAGPLGTPVPMEKFGKILAIGAYTGIVEVYPIAKAWQEIGNDVTTLHVTFEPMVILKEELEKAVTRHIVEPVPLNPNQDFLANMKNVSQRLKEKVRELLESEDWDLVFMVGPVGDQKQVFEVVKEYGVPMKVDLHPIMVDGTGMCGACRVTVGGEVKFACVDGPEFDAYQVDWDELIHRVGFYAKLEKLALEKYMEELKAKGVIMPRLIKERVPTPERSVGERVRDFGEVNLGYSWELALREAERCLQCPVEYAPCIKGCPVHINIPGFIKALRENRDNPSKAVREALRIIWRDNTLPAITGRVCPQEEQCEGACVVGKVGDPINIGKLERFVADYAREHGIDDELLLEEIKGIKRNGKKVAIIGAGPAGLTCAADLAKMGYEVTIYEALHQPGGVLTYGIPEFRLPKEILRKELKKLSLLGVEIKTDHIVGKTITIQELLQEYDAVFIGTGAGTPKLPNIPGINLNGIYSANEFLTRINLMKAYKFPEYDTPIVVGKKVVVIGAGNTAMDAARSALRLGAEVTIAYRRGREDMTARIEEVKHAEEEGVKFMFFVNPVEFIGDENGNVKAVKFEKMKPLEERDSRGKRKIVGTGEYITVEADTVIIAIGQTPNKVLWRATPELKVDEWGRIVVDENLMTSIPGVFAGGDAIRGEATVILAMGDGRKAAKAIHQYLSKKGN | soluble
7 | AIAEAAVDWYDFWNYYYLGKYQAANDVCTTLLEPNQWPRSVLLAVIRLRLALRDLEGIRALRNLVNDTWTSSVIHELIETLQKNVPPIDDGERLRSVVFGDGSALDAVDEAGRLLAALALQRAGLYLDALETLPLSRCENDAESRACRICLWLHLNRLDRAQLEQQALEHWFERQLADGDQRAVGTLVQLSRATLAVASNDAEDVAIEAALRSCRDLAERYGPSTKLLNLTYLCLVRLGRTEASESTLQQAMNLDAQDPDTMANTAASAAKTSMMMMAFPEAATATQRPIEYLRKYAPWHPWIRAQDDFERKLRGLAT | soluble
8 | AIAKPTNKAQDDDAVFALSTEVNHKLDLHQSSAEALRLAGVYTRQSCVLDLYHGYRSDDEDTEPDEEDGRLQTVREYHENGMLKLMRTFVRRLRRDATDPTAESSYYDRVVEEKHYDPSGICRVDMHFALGQPYLYRKHYYPNNRLKSEKVFFVEDEETMRARKVGHWRTYYENGNIQSEIIYNKDGVRCGFCKRYAIDGAIEWVKDYTREQEERLQAFNAKRGNLDLTVTDAARVLGLEGDWCSHVVNRTFRSKCAPLHPDWRRTAGDKAGETWEEEQRTEAFIRLSRAREVLLKFLETHPRECSCERGGA | soluble
9 | AIALTTNASSKIFSKASTAELVGHTRKVHCLSWNPKGGLLGSGGVDCVARIWDVEKLQQKAELEGHTSSIEQLKWDPTANVFFVSASLDHKVLFWDLRARNSEPVASVETQGENINLAWSQDGVYCAVGDKDDNLSFIDVRKFDFFERFQFAEEVNEFKWSPSGPFFFMTLGKEVLVFRWPTMEQQLRLQVHADRCYCLEFDRSGRYFALGGADSIISLWETEYMLCTWTVDRLEYPIRTISFSHDGQFIAAGSEDSVIDISDILNGRQTYALGVKGATNVVAWHPSRHLLAYATEEEYSRDGVAIHLYGTISKDNI | soluble
10 | AIAPSRQLEDPGAGTPSPVRLHALAGFQQRALCHALTFPSLQRLVYSMCSLCQEENEDMVPDALQQNPGAFRLAPALPARPHRGLSTFPGAEHCLRASPKTTLSGGFFVAVIERVEMPT | soluble
11 | AIASIPFSNTHYRIPQGFGNLLEGLTREILREQPDNIPAFAAAYFESLLEKREKTNFDPAEWGSKVEDRFYNNHAFEEQEPPEKSDPKQEESQISGKEEETSVTILDSSEEDKEKEEVAAVKIQAAFRGHIAREEAKKMKTNSLQNEEKEENK | soluble
12 | AIASKKKGLSFDDKRTRMLEIFTESKTFFTLKELEKVAPKQKGIVLPSVKEVLQSLVDDDVVSSDKCGTQTVYWCLPSQAVQKKRCRIASLTEHLQAKYALRQQLFQRRDELRNSHQDTEERTHFIEQINELESKLKLIQEQLDIYKESDPEVLAEIRNVSHIAWEATNRWTDNIFSIRSWVTSKFGLPSSEFDKNFGLSEDFDYI | soluble
13 | AIAVHRDPAEELWCELWQPGVDITRKMNAIFGLKEIGTERAVTLLCAALLDARERSVLVRHEIAYVLGQIQSAASIKTLTDRLIDTDENSIVRHECGEALGAVRAFAVRPILQKLCGDAVPEVRETCVLALERLRWLEEKSTNEERVRETSAKAFKLFETVDPAPAFVAPDDLEASWSNAELGELLLNENEPLFRRYRALFTLRDRNTDDTAGVIAAALRRDTSSALFRHEVAYVLGQMSRACTLPALESALADTHEHAMVRHEAAEAIGAIGNSSACDILRRFLRDANVIVRESCQVALDIAGISDDCQFMD | soluble
14 | AIAWNKKNEEKEDFGIIVILWKQVTVKEDGKVPLEPFLTAAKEVLRVVDAFGSGFRIVKNDIAGNIKKLYRANQTVHAETLQELIIAENSPDGLATVALLWLKRAFQFIASFLRRLVVTDKSLEQCVTEAYNCTLRPCHSAVIQKVFWGGVKLAPSRERFYRKLHPDLNIAKAKIEEFLIELHDPLCCIVQFFFQRELEDQCWGDEVYQRKDSSEWLKVSCEQDSV | soluble
15 | ALGDTLTITLGGSGGTAKVLRKINQDGYTSEYYLPETSSSFRAKVRHTKESVKPNQVQYERHNVEFTETVYASGSTPEFVRQAYVVIRHKVGDVSATVSDLGEALSFYLNEALYGKLIGWES | soluble
16 | ALMITDECINCDVCEPECPNGAISQGDETYVIEPSLCTECVGHYETSQCVEVCPVDAIIKDPSHEETEDELRAKYERITGEG | soluble
17 | ALPTIHVVTPTYSRPVQKAELTRMANTLLHVPNLHWLVVEDAPRRTPLTARLLRDTGLNYTHLHVETPRNYKLRGDARDPRIPRGTMQRNLALRWLRETFPRNSSQPGVVYFADDDNTYSLELFEEMRSTRRVSVWPVAFVGGLRYEAPRVNGAGKVVRWKTVFDPHRPFAIDMAGFAVNLRLILQRSQAYFKLRGVKGGYQESSLLRELVTLNDLEPKAANCTKILVWHTRTEKPVLVNEGKKGFTDPSVEI | soluble
18 | ANNRAEVDTLSPAQAAELKPMPQSWRGVLPCADCEGIETSLFLEKDGTWVMNERYLGAREEPSSFASYGTWARTADKLVLTDSKGEKSYYRAKGDALEMLDREGNPIESQFNYTLEAAQSSLPMTPMTLRGMYFYMADAATFTDCATGKRFMVANNAELERSYLAARGHSEKPVLLSVEGHFTLEGNPDTGAPTKVLAPDTAGKFYPNQDCSSLGQMASMTGGQQMGHHHHHH | soluble
19 | ANSKLTSDFDNPRWIGRHKHMFNFLDVNHNGKISLDEMVYKASDIVINNLGATPEQAKRHKDAVEAFFGGAGMKYGVETDWPAYIEGWKKLATDELEKYAKNEPTLIRIWGDALFDIVDKDQNGAITLDEWKAYTKAAGIIQSSEDCEETFRVCDIDESGQLDVDEMTRQHLGFWYTMDPACEKLYGGAVP | soluble
20 | APGVSTILDNRNNPIAWVYKQRRFEIPSEAIPQSMKDAIVSIEDRRFYEHKGVDIQGNLRAIVTNIFAGGVAQGASTIDQQYVKNFLLLVKSDNPEEQAAATETSIPRKLREMRMASTIDSTLSKDDILTRYLNLVHLGNGAFGVEAAARTYFGKGAPELSLAQSAMFAGIVQSSSY | not soluble
21 | APIKGVTFGEDTVWEVQGYKNVRITFELDERVDKVLNEKCSVYTVESGTEVTEFACVVAEAVVKTLQPVSDLLTNMGIDLDEWSVATFYLFDDAGEENFSSRMYCSFYPPDE | soluble
22 | APKNGTVQEKKFFSKELNEEMTLLVYLPSNYSPLYKYHVIIAQDGHDYFRLGRIGRQVEELLSKREIDRSIIIGVPYKDVKERRNTYHPEGSKFSAYKRFIAHELVPFADDEYPTYQIGYGRTLIGDSLGATVSLMTALDYPNMFGNIIMQSPYVDKHVLEAVKQSDDIKHLSIYHQIGTKETDVHTTDGNILDFTEPNRELKQLLEKKLSDYDFEPFDGDHKWTYWQPLITPALKKML | not soluble
23 | APSASFERRQGSVNPYIGRSPLVIKSYAEKLEETIAYFEAQGDELNAARTRTVQGIPTFAWISDSATIDTIQPLIADAVAHQEASGEQVLVQLVIYNLPDRDCAAKASDGEFHLDDDGANKYRAYVDRIVAELSTADADKLHFSIVLEPDSLGNMVTNMHVPKCQGAATAYKEGIAYTIASLQKPNIDLYIDAAHGGWLGWNDNLRPSAEIFKETLDLARQITPNATVRGLAINVSNYNPYKTRAREDYTEWNNAYDEWNYVKTLTPHLQAVGFPAQFIVDQGRSGREGIRTEWGQWCNIRNAGFGIRPTTDQAIVDSANVDAIVWVKPGGESDGTSDVNAVRFDENCRSPASHVPAPEAGEWFNEFVVNLVINANPPLEPTYAAAALEHHHHHH | soluble
